Target: the molecule itself
Assay: absorbance at 350 nm

B1: farnesylated hGBP1 R584‐586A (hGBP1F ^R584‐586A) (natural protein)
chain: MASEIHMTGPMCLIENTNGRLMANPEALKILSAITQPMVVVAIVGLYRTGKSYLMNKLAGKKKGFSLGSTVQSHTKGIWMWCVPHPKKPGHILVLLDTEGLGDVEKGDNQNDSWIFALAVLLSSTFVYNSIGTINQQAMDQLYYVTELTHRIRSKSSPDENENEVEDSADFVSFFPDFVWTLRDFSLDLEADGQPLTPDEYLTYSLKLKKGTSQKDETFNLPRLCIRKFFPKKKCFVFDRPVHRRKLAQLEKLQDEELDPEFVQQVADFCSYIFSNSKTKTLSGGIQVNGPRLESLVLTYVNAISSGDLPCMENAVLALAQIENSAAVQKAIAHYEQQMGQKVQLPTETLQELLDLHRDSEREAIEVFIRSSFKDVDHLFQKELAAQLEKKRDDFCKQNQEASSDRCSALLQVIFSPLEEEVKAGIYSKPGGYRLFVQKLQDLKKKYYEEPRKGIQAEEILQTYLKSKESMTDAILQTDQTLTEKEKEIEVERVKAESAQASAKMLQEMQRKNEQMMEQKERSYQEHLKQLTEKMENDRVQLLKEQERTLALKLQEQEQLLKEGFQKESRIMKNEIQDLQTKMAAAKACTIS
modifications: C-terminal farnesyl moiety (added in vitro with farnesyltransferase and farnesyl pyrophosphate)
binding result: binds

Reference: article PMC7327485 (The EMBO Journal, 2020)
